Experimental data from patent US20160137714A1 (Thrasos Innovation, Inc., priority 2014, published 2016).
Positions of bridges follow the written chain, without caps; N, C: chain ends. Non-standard residues stand in square brackets, D forms with d. Residues, ends and D or L forms follow the SMILES beside them. No end group written: not given here. *: point of attachment. Hydrocinnamoyl = O=C(CCc1ccccc1)*; Pyrazinecarbonyl = O=C(c1cnccn1)*; dNMeR = CN[C@H](CCCNC(=N)N)C(=O)O

Assays:
FIGURE 31 (1/2) = assay: FIGURE 31 (1/2)
Method: Table printed on a drawing sheet, FIGURE 31 (1/2)
Peptide to internal standard peak area ratios were used calculate percentage remaining peptide at 60 minutes and 120 minutes. Peptides are identified by GPR number (GPR#) and SEQ ID NO.
First reader's note: First of two sheets of FIGURE 31; the table continues on sheet 2/2, and the meaning of the asterisks is not printed on this sheet.

Ex-vivo plasma stability = assay type: in vitro ADME, mouse or rat
Method: Test article is added to fresh mouse or rat plasma at a final in-vial concentration of 1 μM. The peptide is incubated in a water bath at 37° C. over a time course that included the following points (in minutes): 0, 15, 30, 60, 120, 240, and 1440. After the incubation time is completed, a 50 μL aliquot of plasma is removed and proteins are precipitated using a solution containing internal standard (THR-123 at 150 ng/mL) in methanol with 0.5% acetic acid (v/v). The samples are centrifuged at 13,000 RPM for 5 minutes, and a 100 μL aliquot of supernatant is removed and transferred to a 96-well plate containing 200 μL of reconstitution solution (Water/MeOH/Acetic Acid/TFA, 60/40/0.2/0.05, v/v/v/v). A calibration curve and quality control (QC) samples are prepared in parallel in the same manner as the incubation samples. The calibration range for this assay is from 0.02 to 2.0 μM in rat or mouse plasma. The extracted calibrants, QC, and incubation samples are injected onto an AB SCIEX API 2000 LC-MS/MS system. Chromatographic separation is performed using a reversed-phase C18 HPLC column (Ace-3 C18, 30×2.1 mm, 3 μm). The solvent system consists of Milli-Q water, acetonitrile and formic acid. Analyte and internal standard are detected using the multiple reaction monitoring (MRM) scan mode. Calibration curves are generated by using a weighted (1/concentration) quadratic regression analysis of the peak area ratios (analyte/internal standard) versus the nominal concentration of the calibration standards. The concentration of the analyte in the incubation samples is determined by back-calculating the peak area ratios obtained using the quadratic regression.

[1] = Pharmacokinetic studies of THR-123 and GPR-294 i.v. and s.c. (FIG. 13, FIGS. 5-8); assay type: in vivo
Method: A stock solution of THR-123 was prepared at 250 μg/mL in DMSO. This solution was quantitatively added to blank mouse plasma to generate a calibration curve. The linear range was from 0.25 to 250 ng/mL. A 175 μL aliquot of plasma from removed from each calibrant tube and processed using solid phase extraction (SPE). Study samples were first diluted with blank control mouse plasma, and 175 μL was aliquoted for processing using SPE. An internal standard working solution (ISWS) was added to each calibrant and study sample (GPR-227 at 100 ng/mL in water). Plasma proteins were precipitated with 175 μL of methanol with 0.5% acetic acid (v/v). After centrifugation at 14,800 RPM for 10 minutes, a 300 μL aliquot of supernatant was diluted in water with 4% phosphoric acid (v/v). The entire diluted sample was extracted by SPE using a Waters Oasis HLB 96-well μElution plate. Samples were washed twice using a solution of acidified water (0.1% TFA, v/v) and 15% MeOH in water (v/v). Purified extracts were eluted into a 96-well collection plate using 40 μL of elution solvent. Standards and study samples were injected onto a Thermo Q-exactive LC-MS/MS system. Chromatographic separation was performed using a reversed-phase C18 HPLC column (Waters CSH C18, 50×2.1 mm, 2.5 μm). Analyte and internal standard were detected using the targeted selected ion monitoring (tSIM) scan mode. Calibration curves were generated by using a weighted (1/concentration^2) linear regression of the peak area ratios (analyte/internal standard) versus the nominal concentration of the calibration standards. The concentration of the analyte in the study samples was determined by back-calculating the peak area ratios obtained using the linear regression and applying the appropriate dilution factors.
The study described herein involved single (mouse) or multiple (rat) blood collections after test article administration. Test articles are given by oral (PO), intravenous (IV), subcutaneous (SC) or intraperitoneal (IP) routes. All animals have a five day acclimatization period before dosing. Body weights are recorded prior to dosing. […]

CC(C)C[C@@H]1NC(=O)[C@H](C(C)C)NC(=O)[C@H](CC(N)=O)NC(=O)[C@H](CO)NC(=O)[C@H](CO)NC(=O)[C@H](CC(=O)O)NC(=O)[C@H](CC(=O)O)NC(=O)[C@H](Cc2ccccc2)NC(=O)[C@H](Cc2ccc(O)cc2)NC(=O)[C@@H](NC(=O)CCc2ccccc2)CSSC[C@@H](C(=O)N[C@@H](CCCCN)C(=O)N[C@@H](CCCCN)C(=O)N[C@@H](Cc2ccc(O)cc2)C(=O)N[C@@H](CCCNC(=N)N)C(=O)N[C@@H](CO)C(=O)O)NC1=O [SEQ ID NO:31, [N-terminal: Phenyl-CH2-CH2-CO-]Cys-Tyr-Phe-Asp-Asp-Ser-Ser-Asn-Val-Leu-Cys-Lys-Lys-Tyr-Arg-Ser] (Hydrocinnamoyl-CYFDDSSNVLCKKYRS-OH; disulfide 1-11)
% Remaining at 60 and 120 minutes | 60 (FIGURE 31 (1/2)): 26.6%
% Remaining at 60 and 120 minutes | 120 (FIGURE 31 (1/2)): 11.8%

CYFDDSSNVKCKK[dA]RS (cysteine pairing not given here) [SEQ ID NO:28]
% Remaining at 60 and 120 minutes | 60 (FIGURE 31 (1/2)): 75.3%
% Remaining at 60 and 120 minutes | 120 (FIGURE 31 (1/2)): 90.2%

Cys-Tyr-Phe-Asp-Asp-Ser-Ser-Asn-Ala-Leu-Cys-Lys-Lys-Tyr-(Me)(D)Arg-Ser (CYFDDSSNALCKKY[dNMeR]S-OH; disulfide 1-11 (inferred)) [SEQ ID NO:42]
% Remaining at 60 and 120 minutes | 60 (FIGURE 31 (1/2)): 100.0%
% Remaining at 60 and 120 minutes | 120 (FIGURE 31 (1/2)): 94.0%

Cys-Tyr-Tyr-Phe-Ser-Ser-Ser-Phe-Val-Leu-Cys-Lys-Arg-Tyr-(Me)(D)Arg-Ser (CYYFSSSFVLCKRY[dNMeR]S-OH; disulfide 1-11 (inferred)) [SEQ ID NO:44]
% Remaining at 60 and 120 minutes | 60 (FIGURE 31 (1/2)): 74.3%
% Remaining at 60 and 120 minutes | 120 (FIGURE 31 (1/2)): 57.5%

Cys-Tyr-Phe-Nal-Asp-Ser-Ser-Asn-Val-Leu-Cys-Lys-Lys-Tyr-Arg-Ser (CYF[Nal]DSSNVLCKKYRS-OH; disulfide 1-11 (inferred)) [SEQ ID NO:47]
% Remaining at 60 and 120 minutes | 60 (FIGURE 31 (1/2)): 9.0%
% Remaining at 60 and 120 minutes | 120 (FIGURE 31 (1/2)): 8.2%

[N-terminal: Pirazinyl-CO-]Cys-Tyr-Phe-Asp-Asp-Ser-Ser-Asn-Val-Leu-Cys-Lys-Lys-Tyr-Arg-Ser (Pyrazinecarbonyl-CYFDDSSNVLCKKYRS-OH; disulfide 1-11 (inferred)) [SEQ ID NO:33]
% Remaining at 60 and 120 minutes | 60 (FIGURE 31 (1/2)): 44.3%
% Remaining at 60 and 120 minutes | 120 (FIGURE 31 (1/2)): 23.6%

[N-terminal: Pirazinyl-CO-]Cys-Tyr-Phe-Asp-Asp-Ser-Ser-Asn-Val-Leu-Cys-Lys-Lys-(D)Tyr-Arg-Ser (Pyrazinecarbonyl-CYFDDSSNVLCKK[dY]RS-OH; disulfide 1-11 (inferred)) [SEQ ID NO:34]
% Remaining at 60 and 120 minutes | 60 (FIGURE 31 (1/2)): 66.2%
% Remaining at 60 and 120 minutes | 120 (FIGURE 31 (1/2)): 78.7%

Cys-Tyr-Phe-Nal-Asp-Ser-Ser-Asn-Val-Leu-Cys-Lys-Lys-(D)Tyr-Arg-Ser (CYF[Nal]DSSNVLCKK[dY]RS-OH; disulfide 1-11 (inferred)) [SEQ ID NO:48]
% Remaining at 60 and 120 minutes | 60 (FIGURE 31 (1/2)): 93.33%
% Remaining at 60 and 120 minutes | 120 (FIGURE 31 (1/2)): 97.49%

Cys-Tyr-Phe-Asp-Asp-Ser-Ser-Asn-Thr-Leu-Cys-Lys-Lys-Tyr-(Me)(D)Arg-Ser (CYFDDSSNTLCKKY[dNMeR]S-OH; disulfide 1-11 (inferred)) [SEQ ID NO:40]
% Remaining at 60 and 120 minutes | 60 (FIGURE 31 (1/2)): 106.0%
% Remaining at 60 and 120 minutes | 120 (FIGURE 31 (1/2)): 99.2%

CC(C)C[C@@H]1NC(=O)[C@H](C(C)C)NC(=O)[C@H](CC(N)=O)NC(=O)[C@H](CO)NC(=O)[C@H](CO)NC(=O)[C@H](CC(=O)O)NC(=O)[C@H](CC(=O)O)NC(=O)[C@H](Cc2ccccc2)NC(=O)[C@H](Cc2ccc(O)cc2)NC(=O)[C@@H](NC(=O)CCc2ccccc2)CSSC[C@@H](C(=O)N[C@@H](CCCCN)C(=O)N[C@@H](CCCCN)C(=O)N[C@H](Cc2ccc(O)cc2)C(=O)N[C@@H](CCCNC(=N)N)C(=O)N[C@@H](CO)C(=O)O)NC1=O [SEQ ID NO:32, [N-terminal: Phenyl-CH2-CH2-CO-]Cys-Tyr-Phe-Asp-Asp-Ser-Ser-Asn-Val-Leu-Cys-Lys-Lys-(D)Tyr-Arg-Ser] (Hydrocinnamoyl-CYFDDSSNVLCKK[dY]RS-OH; disulfide 1-11)
% Remaining at 60 and 120 minutes | 60 (FIGURE 31 (1/2)): 82.0%
% Remaining at 60 and 120 minutes | 120 (FIGURE 31 (1/2)): 91.0%

Cys-Tyr-Phe-Asp-Asp-Asn-Ser-Asn-Val-Leu-Cys-Arg-Lys-Tyr-(Me)(D)Arg-Ser (CYFDDNSNVLCRKY[dNMeR]S-OH; disulfide 1-11 (inferred)) [SEQ ID NO:38]
% Remaining at 60 and 120 minutes | 60 (FIGURE 31 (1/2)): 90.4%
% Remaining at 60 and 120 minutes | 120 (FIGURE 31 (1/2)): 84.2%

CC(C)C[C@@H]1NC(=O)[C@H](C(C)C)NC(=O)[C@H](CC(N)=O)NC(=O)[C@H](CO)NC(=O)[C@H](CO)NC(=O)[C@H](CC(=O)O)NC(=O)[C@H](CC(=O)O)NC(=O)[C@H](Cc2ccccc2)NC(=O)[C@H](Cc2ccc(O)cc2)NC(=O)[C@@H](N)CSSC[C@@H](C(=O)N[C@@H](CCCCN)C(=O)N[C@@H](CCCCN)C(=O)N[C@H](Cc2ccc(O)cc2)C(=O)N[C@@H](CCCNC(=N)N)C(=O)N[C@@H](CO)C(=O)O)NC1=O [GPR-294, Cys-Tyr-Phe-Asp-Asp-Ser-Ser-Asn-Val-Leu-Cys-Lys-Lys-D-tyr-Arg-Ser] (H-CYFDDSSNVLCKK[dY]RS-OH; disulfide 1-11)
remaining at 1 h (Ex-vivo plasma stability; fresh plasma 37° C., 1 μM, 60 min, read-out: Percent remaining 60 min): 72.6%
remaining at 2 h (Ex-vivo plasma stability; fresh plasma 37° C., 1 μM, 120 min, read-out: Percent remaining 120 min): 67.9%
stability toward plasma proteolytic cleavage (Ex-vivo plasma stability; versus THR-123, rat plasma (FIGS. 3 and 4)): enhanced
plasma half-life compared with THR-123 ([1]; by either route of administration (i.v., s.c.)): much longer plasma half-life than the non-stabilized THR-123
bioavailability ([1]; in vivo, s.c. versus i.v., FIG. 13, read-out: bioavailable by sub-cutaneous administration): 100%
